Assay results reported in IntAct's records for PubMed 24590075.

B1: Zinc finger MYND domain-containing protein 11 (Mus musculus), Q8R5C8 (parent)
chain: MARLTKRRQADTKAIQHLWAAIEIIRNQKQIANIDRITKYMSRVHGMHPKETTRQLSLAVKDGLIVETLTVGCKGSKAGIEQEGYWLPGDEIDWETETHDWYCFECHLPGEVLICDLCFRVYHSKCLSDEFRLRDSSSHWQCPVCRSIKKKHSNKQEMGTYLRFIVSRMKERAIDLNKKGKDSKHPMYRRLVHSAVDVPTIQEKVNEGKYRSYEEFKADAQLLLHNTVIFYGADSEQADIARMLYKDTCHELDELQLCKNCFYLSNARPDNWFCYPCIPNHELVWAKMKGFGFWPAKVMQKEDNQVDVRFFGHHHQRAWIPSENIQDITVNVHRLHVKRSMGWKKACDELELHQRFLREGRFWKSKNEDRGEEEAESSISSTSNEQLKVTQEPRAKKGRRNQSVEPKKEEPEPETEAVSSSQEIPTMPQPIERVSVSTQTKKLSASSPRMLHRSTQTTSDGVCQSMCHDKYTKIFNDFKDRMKSDHKRETERVVREALEKLRSEMEEEKRQAVNKAVASLQGDMDRKGKQLKEKCKEEFVEEIKKLAAQHKQLISQTKKKQWCYNCEEEAMYHCCWNTSYCSIKCQQEHWHAEHKRTCRRKR

Columns and labels:
h33_human H3-3A, P84243 [1] = variants of: B1; conditions: with h33_human H3-3A
h33_human H3-3A, P84243 [2] = variants of: B1; conditions: with h33_human H3-3A; remark: listed apart in the source

E251A
effect of a mutation on the interaction (h33_human H3-3A, P84243 [1]): disrupting interaction strength
effect of a mutation on the interaction (h33_human H3-3A, P84243 [2]): decreasing interaction strength

F310A
effect of a mutation on the interaction (h33_human H3-3A, P84243 [1]): disrupting interaction strength
effect of a mutation on the interaction (h33_human H3-3A, P84243 [2]): decreasing interaction strength

W294A
effect of a mutation on the interaction (h33_human H3-3A, P84243 [1]): disrupting interaction strength
effect of a mutation on the interaction (h33_human H3-3A, P84243 [2]): decreasing interaction strength

N266A
effect of a mutation on the interaction (h33_human H3-3A, P84243 [1]): disrupting interaction strength
effect of a mutation on the interaction (h33_human H3-3A, P84243 [2]): decreasing interaction strength

D307N
effect of a mutation on the interaction (h33_human H3-3A, P84243 [2]): decreasing interaction strength

F291A
effect of a mutation on the interaction (h33_human H3-3A, P84243 [1]): disrupting interaction strength

R168A
effect of a mutation on the interaction (h33_human H3-3A, P84243 [1]): disrupting interaction strength
effect of a mutation on the interaction (h33_human H3-3A, P84243 [2]): decreasing interaction strength
